Measured values as given in patent US20230181772A1 (CITY OF HOPE, published 2023).

T1: recombinant human PSCA-mouseFc fusion protein (human, UniProt O43653 12-83, limits assumed)
T1 construct: also called hPSCA-mFc; Recombinant human PSCA mouse Fc fusion protein (UCLA); not shown: mouse Fc
T1 sequence: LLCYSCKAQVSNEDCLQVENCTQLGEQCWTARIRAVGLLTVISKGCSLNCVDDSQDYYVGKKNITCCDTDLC

T2: human prostate stem cell antigen (PSCA) on the cell surface (human, UniProt O43653 12-83)
T2 construct: Expressed on transduced cell lines (22Rv1-hPSCA, RM9-hPSCA, KPC-hPSCA) or endogenously on Capan-1; also called hPSCA; 22Rv1-PSCA
T2 sequence: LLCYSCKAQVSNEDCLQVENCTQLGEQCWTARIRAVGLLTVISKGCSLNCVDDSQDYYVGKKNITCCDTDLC


Key:
[1] = molecular target: T1, recombinant human PSCA-mouseFc fusion …; assay: saturation binding ELISA on immobilized hPSCA-mFc (1 ug/mL), half-maximal binding, one-site specific binding fit, 3 experiments
Method: Western Blot was also used to test antigen specificity. Recombinant human PSCA mouse Fc fusion protein (UCLA) was blotted and anti-PSCA scFv-Fc variants were tested for binding. Specificity and affinity of antigen binding was further evaluated by performing saturation binding on immobilized antigen in ELISA. Specific binding was fitted using the “one site-specific binding” equation to determine the Kd (ligand concentration that binds half the antigen sites at equilibrium) and Bmax (maximum number of binding sites).
Saturation binding of the anti-PSCA scFv-Fc fragments was tested in ELISA in 3 independent experiments with duplicates. Binding of serial dilutions (1 μM-[…]) of A2scFv-Fc2 and A2scFv-Fc2DM to immobilized recombinant hPSCA-m Fc (1 μg/mL) was specific and dose-dependent (FIG. 6).

[2] = molecular target: T2, human prostate stem cell antigen (PSCA) …; assay: flow cytometry titration on PSCA-expressing cells, apparent on-cell affinity (half-maximal binding)
Method: The capability of the anti-PSCA antibody fragments to bind to PSCA expressed on the cell surface was analyzed by flow cytometry. Antigen specificity was confirmed using PSCA-positive and negative cell lines. In this assay binding was only seen with 22Rv1-PSCA cells but not with 22Rv1 (FIG. 9A). […] Binding to murine cell lines transduced to express human PSCA and the human pancreatic cancer cell line Capan-1 was also confirmed using the A2scFv-Fc2 (FIG. 9C).

[3] = molecular target: T3, BSA (UniProt P02769 25-607); assay: ELISA, control wells blocked with BSA
T3 construct: Negative control coating in the ELISA; also called BSA coated wells
T3 sequence (P02769 25-607 limits assumed): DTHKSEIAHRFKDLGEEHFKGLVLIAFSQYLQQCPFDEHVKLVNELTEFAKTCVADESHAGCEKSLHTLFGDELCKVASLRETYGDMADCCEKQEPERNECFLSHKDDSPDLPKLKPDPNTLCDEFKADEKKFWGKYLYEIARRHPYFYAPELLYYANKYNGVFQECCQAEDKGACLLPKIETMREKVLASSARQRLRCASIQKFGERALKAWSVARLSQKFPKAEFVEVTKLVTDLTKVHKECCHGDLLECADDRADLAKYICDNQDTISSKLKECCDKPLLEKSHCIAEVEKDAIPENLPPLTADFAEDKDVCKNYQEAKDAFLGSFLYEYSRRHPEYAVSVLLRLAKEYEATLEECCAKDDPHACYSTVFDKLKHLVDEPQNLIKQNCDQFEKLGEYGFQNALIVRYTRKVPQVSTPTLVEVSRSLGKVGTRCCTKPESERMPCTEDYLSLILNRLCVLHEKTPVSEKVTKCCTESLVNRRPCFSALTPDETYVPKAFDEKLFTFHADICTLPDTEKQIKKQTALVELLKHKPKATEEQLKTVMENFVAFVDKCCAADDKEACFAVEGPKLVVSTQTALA
Method: For further confirmation of specific antigen binding ELISA was used to detect binding of A2scFv-Fc2 and A2scFv-Fc2DM to immobilized antigen hPSCA-mFc (FIG. 5). Different concentrations of hPSCA-mFc were coated (1, 3 and 5 μg/mL in PBS, 100 μL/well) overnight, control wells were blocked with BSA. Presence of immobilized antigen was detected using goat anti-mouseFc-AP. […] No nonspecific binding to BSA coated wells was detected.

Kd [1] [nM] | Kd [2] [nM] | binding result [3] | Binder
0.5 | 1.2 | no binding | A2scFv-Fc2 (Fc fusion, Homodimer of two scFv-Fc peptides: anti-PSCA A2 VH-VL scFv with a (G4S)2-GGSAQ linker, truncated human IgG2 hinge and Fc; Made in FreeStyle 293-F cells, glycosylated at Asn-297; also called anti-PSCA scFv-Fc2) EVQLVESGGGLVQPGGSLRLSCAASGFNIKDYYIHWVRQAPGKGLEWVAWIDPEYGDSEFVPKFQGRATMSADTSKNTAYLQMNSLRAEDTAVYYCKTGGFWGRGTLVTVSSGGGGSGGGGSGGSAQDIQLTQSPSSLSASVGDRVTITCSASSSVRFIHWYQQKPGKAPKRLIYDTSKLASGVPSRFSGSGSGTDFTLTISSLQPEDFATYYCQQWGSSPFTFGQGTKVEIKVECPPCPAPPVAGPSVFLFPPKPKDTLMISRTPEVTCVVVDVSHEDPEVQFNWYVDGMEVHNAKTKPREEQFNSTFRVVSVLTVVHQDWLNGKEYKCKVSNKGLPAPIEKTISKTKGQPREPQVYTLPPSREEMTKNQVSLTCLVKGFYPSDIAVEWESNGQPENNYKTTPPMLDSDGSFFLYSKLTVDKSRWQQGNVFSCSVMHEALHNHYTQKSLSLSPGK
0.8 | 0.65 | no binding | A2scFv-Fc2DM (Fc fusion, Homodimer; also called A2scFv-FcDM; double mutant) EVQLVESGGGLVQPGGSLRLSCAASGFNIKDYYIHWVRQAPGKGLEWVAWIDPEYGDSEFVPKFQGRATMSADTSKNTAYLQMNSLRAEDTAVYYCKTGGFWGRGTLVTVSSGGGGSGGGGSGGSAQDIQLTQSPSSLSASVGDRVTITCSASSSVRFIHWYQQKPGKAPKRLIYDTSKLASGVPSRFSGSGSGTDFTLTISSLQPEDFATYYCQQWGSSPFTFGQGTKVEIKVECPPCPAPPVAGPSVFLFPPKPKDTLMISRTPEVTCVVVDVSHEDPEVQFNWYVDGMEVHNAKTKPREEQFNSTFRVVSVLTVVAQDWLNGKEYKCKVSNKGLPAPIEKTISKTKGQPREPQVYTLPPSREEMTKNQVSLTCLVKGFYPSDIAVEWESNGQPENNYKTTPPMLDSDGSFFLYSKLTVDKSRWQQGNVFSCSVMHEALHNQYTQKSLSLSPGK
